Source: US20100305025

T1: human placental RNase inhibitor, P13489
T1 chain: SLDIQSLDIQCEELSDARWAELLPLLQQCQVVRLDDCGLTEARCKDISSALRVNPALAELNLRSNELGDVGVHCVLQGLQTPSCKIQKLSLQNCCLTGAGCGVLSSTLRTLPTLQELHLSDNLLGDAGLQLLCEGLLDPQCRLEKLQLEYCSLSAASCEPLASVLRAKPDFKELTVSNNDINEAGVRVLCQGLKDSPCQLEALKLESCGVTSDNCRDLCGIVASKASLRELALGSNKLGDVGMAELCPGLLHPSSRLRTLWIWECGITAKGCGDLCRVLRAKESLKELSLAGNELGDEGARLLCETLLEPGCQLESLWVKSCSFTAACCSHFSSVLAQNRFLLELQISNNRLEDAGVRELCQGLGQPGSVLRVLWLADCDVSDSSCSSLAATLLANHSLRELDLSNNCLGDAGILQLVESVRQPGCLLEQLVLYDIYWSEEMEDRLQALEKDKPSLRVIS


Molecular target: T1, human placental RNase inhibitor, P13489

Row | Protein | RNase activity (yeast tRNA substrate)
1 | recombinant carboxy-terminal FLAG-tagged chicken (Gallus gallus) leukocyte RNase A-2 (protein) VPTYQDFLYKHMDFPKTSFPSNAAYCNVMMVRRGMTAHGRCKSFNTFVHTDPRNLNTLCINQPDQALRTTRRHFRITDCKLIRSHPTCRYSGNQFNRRVRVGCRGGLPVHLDGTSP | completely inhibited RNase activity
2 | recombinant carboxy-terminal FLAG-tagged chicken (Gallus gallus) leukocyte RNase A-1 (protein) VPTYQDFLRTHVDFPKTSFPNIAAYCNVMMVRRGINVHGRCKSLNTFVHTDPRNLNTLCINQPNRALRTTQQQLPVTDCKLIRSHPTCSYTGNQFNHRVRVGCWGGLPVHLDGTFP | completely inhibited RNase activity
